Numbered stars: 1 amine (or outer) side, 2 acyl side, 3 side chain; on linkers, the order of the positions; unused ones are H or OH. Square brackets hold non-standard residues; d marks the D form. Peptide text beside a SMILES is read from it. * marks the point of attachment. ξ: configuration not given here. X1 = COc1cccc2c1C(=O)c1c(O)c3c(c(O)c1C2=O)C[C@@](O)(C(=O)CO)CC3O[C@H]1C[C@@H](N*)C(O)[C@H](C)O1; Hexanoyl(6-maleimido) = O=C1C=CC(=O)N1CCCCCC(=O)*; PABC = O=C(OCc1ccc(N[*:1])cc1)[*:2]; ξY = NC(Cc1ccc(O)cc1)C(=O)O; ξR = N=C(N)NCCCC(N)C(=O)O; ξL = CC(C)CC(N)C(=O)O; ξS = NC(CO)C(=O)O

Here are results for four compounds from US8642555B2, “Prodrugs” (KTB Tumorforschungsgesellschaft mbH, priority 2009, dated 2014).

For data set [1] the following is noted: cited from earlier work.
The conditions of data set [2]: in vivo; cited from earlier work.

`COc1cccc2c1C(=O)c1c(O)c3c(c(O)c1C2=O)CC(O)(C(=O)CO)CC3OC1CC(NC(=O)C(CCCNC(=N)N)NC(=O)C(N)CO)C(O)C(C)O1` (stereo not drawn) [Ser-Arg-DOXO]: the “half-life of liberation of free doxorubicin from the dipeptide” value in data set [1] was > 48 h.
For the compound `CC(=O)O[C@H]1C(=O)[C@@]2(C)C([C@H](OC(=O)c3ccccc3)[C@]3(O)C[C@H](OC(=O)[C@H](OC(=O)OCc4ccc(NC(=O)C(CC(C)C)NC(=O)C(CO)NC(=O)C(Cc5ccc(O)cc5)NC(=O)C(Cc5ccc(O)cc5)NC(=O)C(CO)NC(=O)C(CO)NC(=O)C(CCCNC(=N)N)NC(=O)CCCCCN5C(=O)C=CC5=O)cc4)[C@@H](NC(=O)c4ccccc4)c4ccccc4)C(C)=C1C3(C)C)[C@]1(OC(C)=O)CO[C@@H]1C[C@@H]2O` (stereo partly drawn) [compound 10, EMC-Arg-Ser-Ser-Tyr-Tyr-Ser-Leu-PABC-Paclitaxel], the water-solubility entry in the data set “Water-solubility” was “excellent water-solubility”.
`COc1cccc2c1C(=O)c1c(O)c3c(c(O)c1C2=O)C[C@@](O)(C(=O)CO)CC3O[C@H]1C[C@@H](NC(=O)OCc2ccc(NC(=O)C(CC(C)C)NC(=O)C(CO)NC(=O)C(Cc3ccc(O)cc3)NC(=O)C(Cc3ccc(O)cc3)NC(=O)C(CO)NC(=O)C(CO)NC(=O)C(CCCNC(=N)N)NC(=O)CCCCCN3C(=O)C=CC3=O)cc2)C(O)[C@H](C)O1` (stereo partly drawn) [compound 6, EMC-Arg-Ser-Ser-Tyr-Tyr-Ser-Leu-PABC-DOXO] ({Hexanoyl(6-maleimido)}-[ξR][ξS][ξS][ξY][ξY][ξS][ξL][PABC]-X1): in the data set “Water-solubility”, the water-solubility entry is “excellent water-solubility”.
Regarding albumin, the “half-life in the systemic circulation” value in data set [2] was “up to 19 days”.
